Measured values published in article PMC7243271.
Like-named read-outs stand apart in the source and are kept apart here.

Legend:
Assay in all cases: SEC-MALS
[1] = target: Nup358-KLC2-fusion protein (human | mouse) (UniProt P49792)
[2] = target: Nup358-KLC2-fusion protein (human | mouse) (UniProt P49792); remark: listed apart in the source
[3] = target: Nup358/W2224A/D2225A-KLC2-fusion protein (human | mouse) (UniProt P49792)
[4] = target: Nup358-min (residues 2147–2240 of human Nup358) (human) (UniProt P49792)

Measured: stoichiometry N

BicD2-CTD (residues 715–804 of human BicD2) (domain or fragment)
1: all assays above
